Positions count from the first letter of the chain named.
How the values were obtained:
[1] = test system: T1, sCMGE10 (single Cdc45-MCM-GINS-Polε with Mcm10); experiment: cryo-EM structure of complex ([…]-3.[…] Å); format: binding, Saccharomyces cerevisiae; settings: assembled with 5 mM ATP, magnesium acetate, pH 7.6, bound to origin DNA; MCM ATPase sites
T1 construct: gene MCM2; His- or TwinStrepII-tagged GINS; MCM loaded as Mcm2-7/Cdt1; wild type; ATP/ADP in MCM ATPase tier; with Cell division control protein 45; DNA replication complex GINS protein PSF1; DNA replication complex GINS protein PSF2; DNA replication complex GINS protein PSF3; DNA replication complex GINS protein SLD5; DNA polymerase epsilon catalytic subunit A; DNA polymerase epsilon subunit B; DNA polymerase epsilon subunit C; DNA polymerase epsilon subunit D; Minichromosome maintenance protein 10

[2] = target: T2, Mcm10 wild-type (Saccharomyces cerevisiae, UniProt P32354 1-571); experiment: MST; 10 mM Mg acetate; MST: 25 mM HEPES-KOH pH 7.6, 100 mM K-glutamate, 10 mM Mg acetate, 0.02% NP-40, 0.5 mM TCEP, 5 nM ssDNA, room temperature, 30 min; CMG assembly/EM: same buffer; settings: protein: recombinant; tags: N-terminal His, C-terminal Flag (pHis-Mcm10-Flag); label: FAM (after the 3' end)
T2 sequence: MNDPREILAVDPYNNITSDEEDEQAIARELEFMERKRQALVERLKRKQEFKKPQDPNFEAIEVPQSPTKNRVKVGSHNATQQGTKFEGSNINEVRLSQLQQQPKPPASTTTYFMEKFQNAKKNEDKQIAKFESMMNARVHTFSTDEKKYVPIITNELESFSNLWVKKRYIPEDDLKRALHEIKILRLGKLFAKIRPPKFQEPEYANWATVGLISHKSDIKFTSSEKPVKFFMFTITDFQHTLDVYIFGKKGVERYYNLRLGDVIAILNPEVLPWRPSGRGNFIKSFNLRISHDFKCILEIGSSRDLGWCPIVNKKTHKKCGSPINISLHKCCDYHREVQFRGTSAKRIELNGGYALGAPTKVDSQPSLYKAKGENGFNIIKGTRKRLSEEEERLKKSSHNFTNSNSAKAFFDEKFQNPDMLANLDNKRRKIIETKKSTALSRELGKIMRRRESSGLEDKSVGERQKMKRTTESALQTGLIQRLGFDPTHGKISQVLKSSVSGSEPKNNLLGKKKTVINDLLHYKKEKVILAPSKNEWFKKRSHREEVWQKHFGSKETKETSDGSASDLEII

[3] = target: T3, Mcm10 3A (OB-fold mutant) (Saccharomyces cerevisiae, UniProt P32354 1-571, F230A;Y245A;F247A); experiment: as above; settings: protein: recombinant; label: FAM (after the 3' end)
T3 sequence: T2 sequence with F230A, Y245A, F247A

[4] = target: T4, Mcm10 deltaCTD (Saccharomyces cerevisiae, UniProt P32354 1-357, del358-571); experiment: as above; settings: protein: recombinant; tags: N-terminal 6xHis, C-terminal 3xFlag; label: FAM (after the 3' end)
T4 sequence: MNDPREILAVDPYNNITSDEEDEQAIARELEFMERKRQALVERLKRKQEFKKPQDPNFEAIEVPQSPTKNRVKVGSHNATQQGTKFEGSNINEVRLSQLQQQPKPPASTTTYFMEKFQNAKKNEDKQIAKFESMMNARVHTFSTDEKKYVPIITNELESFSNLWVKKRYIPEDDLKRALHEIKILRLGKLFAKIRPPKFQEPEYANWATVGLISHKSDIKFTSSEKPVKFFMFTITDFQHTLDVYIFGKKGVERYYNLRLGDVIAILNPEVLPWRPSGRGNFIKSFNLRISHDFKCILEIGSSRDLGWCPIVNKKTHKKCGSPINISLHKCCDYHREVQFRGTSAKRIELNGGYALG

Molecule | cryo-EM structure of complex (3.7-3.9 Å) [1] | binding result [2] | binding result [3] | binding result [4]
Nc1ncnc2c1ncn2[C@@H]1O[C@H](COP(=O)(O)OP(=O)(O)OP(=O)(O)O)[C@@H](O)[C@H]1O [ATP] | Cryo-EM density for nucleotide ATP and ADP for consensus, ssDNA and nexus map | – | – | –
Nc1ncnc2c1ncn2[C@@H]1O[C@H](COP(=O)(O)OP(=O)(O)O)[C@@H](O)[C@H]1O [ADP] | Cryo-EM density for nucleotide ATP and ADP for consensus, ssDNA and nexus map | – | – | –
CCCCCCCCCCCC (ssDNA) [FAM-labelled dC12 ssDNA] | – | binds | no binding | binds

Source: publication PMC11327109, “Unwinding of a eukaryotic origin of replication visualized by cryo-EM” (Nature Structural & Molecular Biology, 2024)
